Consider PKCβII, for which the “phosphorylation activity (1 µM peptide, 2 ng kinase)” value (from here on “phosphorylation activity”) in the data set on PKCα-S10 is “PKCβII and PKCγ have comparable activities to that of PKCα”.

For PKCδ, the “phosphorylation activity” value in the data set on PKCα-S10 is “no activity is observed with PKCδ, PKCµ, and PKCν”.

Consider PKCθ, for which the “phosphorylation activity” value with PKCα-S10 is “PKCβI and PKCθ are slightly more active than PKCα”.

For the substance PKCβI, in the data set with PKCα-S10, the “phosphorylation activity” value was “PKCβI and PKCθ are slightly more active than PKCα”.

On to PKCη, for which, in the data set with PKCα-S10, the “phosphorylation activity” value is “very little activity is detected with PKCε, PKCζ, PKCη and PKCι”.

As to PKCγ, the “phosphorylation activity” value in the data set with PKCα-S10 is “PKCβII and PKCγ have comparable activities to that of PKCα”.

On to PKCα, for which, in the data set on PKCα-S1, the KM stood at 8.6 µM, the Vmax (µmol min^-1 mg^-1) (µmol min^-1 mg^-1) is 5.9 and the Vmax/KM came out at 6200 min⁻¹ mg⁻¹. In the data set on PKCα-S10, the KM amounted to 0.12 µM, the Vmax (µmol min^-1 mg^-1) (µmol min^-1 mg^-1) came out at 2.2 and the Vmax/KM was 149000 min⁻¹ mg⁻¹. In addition, in the data set with PKCα-S9, the KM was determined as 0.093 µM, the Vmax (µmol min^-1 mg^-1) (µmol min^-1 mg^-1) was found to be 1.8 and the Vmax/KM came to 160000 min⁻¹ mg⁻¹.

Regarding PKCε, in the data set with PKCα-S10, the “phosphorylation activity” value was “very little activity is detected with PKCε, PKCζ, PKCη and PKCι”.

For the origin of these results see patent US8586570.

Chain of PKCθ (Q04759 whole entry): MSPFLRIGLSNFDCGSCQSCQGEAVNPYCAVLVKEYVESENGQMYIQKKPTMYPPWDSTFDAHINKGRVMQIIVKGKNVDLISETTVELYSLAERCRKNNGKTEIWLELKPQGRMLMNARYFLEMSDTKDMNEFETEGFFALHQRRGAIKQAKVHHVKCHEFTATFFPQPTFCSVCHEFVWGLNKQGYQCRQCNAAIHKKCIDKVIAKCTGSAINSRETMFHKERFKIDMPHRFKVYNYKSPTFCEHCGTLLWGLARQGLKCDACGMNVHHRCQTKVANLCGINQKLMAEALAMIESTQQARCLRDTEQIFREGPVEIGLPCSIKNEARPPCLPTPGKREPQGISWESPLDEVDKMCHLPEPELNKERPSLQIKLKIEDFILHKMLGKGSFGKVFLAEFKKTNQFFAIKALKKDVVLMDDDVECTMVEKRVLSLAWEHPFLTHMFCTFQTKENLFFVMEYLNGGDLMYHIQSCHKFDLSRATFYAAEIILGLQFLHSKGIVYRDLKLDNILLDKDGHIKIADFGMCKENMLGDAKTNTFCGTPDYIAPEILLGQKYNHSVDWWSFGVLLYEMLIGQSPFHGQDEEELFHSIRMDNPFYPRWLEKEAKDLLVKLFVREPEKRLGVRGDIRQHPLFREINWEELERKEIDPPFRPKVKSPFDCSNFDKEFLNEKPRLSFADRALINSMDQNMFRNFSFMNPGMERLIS
